The record followed here is the Human Domainome abundance scans (Beltran et al. 2025).

± gives the uncertainty stated by the source.

The labels stand for the following.
B1: POU domain, class 3, transcription factor 1, residues 247 to 324; numbered along this chain, Q03052 (parent)
chain: EDAPSSDDLEQFAKQFKQRRIKLGFTQADVGLALGTLYGNVFSQTTICRFEALQLSFKNMCKLKPLLNKWLEETDSSS

The variants in the data set derive from B1. Kind of data set: abundance fitness (aPCA) (normalised: wild type 0, dead -1); higher = more abundant; growth selection in yeast, the domain comes from the species named. The conditions noted are these: Homo sapiens.
Turning to EDAPSSDDLEQFAKQFKQRRIKLGFTQADVGLALGTLYGNVFSQTTICRFKALQLSFKNMCKLKPLLNKWLEETDSSS [E51K], the abundance fitness is -0.414 ± 0.14.
In the case of EDAPSSDDLEQFAKQFKQRRIKLGFTQADVGLALGTLYGNVFSQTTICRFTALQLSFKNMCKLKPLLNKWLEETDSSS [E51T] it was -0.668 ± 0.14; in that of EDAPSSDDLEQFAKQFKQRRIKLGFTQADVGLALGTLYGNVFSQTTICRFQALQLSFKNMCKLKPLLNKWLEETDSSS [E51Q], -0.686 ± 0.23.
On to EDAPSSDDLEQFAKQFKQRRIKLGFTQADVGLALGTLYGNVFSQTTICRFPALQLSFKNMCKLKPLLNKWLEETDSSS [E51P], for which the abundance fitness is -0.781 ± 0.14.
In the case of EDAPSSDDLEQFAKQFKQRRIKLGFTQADVGLALGTLYGNVFSQTTICRFIALQLSFKNMCKLKPLLNKWLEETDSSS [E51I] it was -0.818 ± 0.17; in that of EDAPSSDDLEQFAKQFKQRRIKLGFTQADVGLALGTLYGNVFSQTTICRFRALQLSFKNMCKLKPLLNKWLEETDSSS [E51R], -0.501 ± 0.13.
On to EDAPSSDDLEQFAKQFKQRRIKLGFTQADVGLALGTLYGNVFSQTTICRFHALQLSFKNMCKLKPLLNKWLEETDSSS [E51H], for which the abundance fitness is -0.98 ± 0.29.
On to EDAPSSDDLEQFAKQFKQRRIKLGFTQADVGLALGTLYGNVFSQTTICRFMALQLSFKNMCKLKPLLNKWLEETDSSS [E51M], for which the abundance fitness is -0.503 ± 0.28.
Turning to EDAPSSDDLEQFAKQFKQRRIKLGFTQADVGLALGTLYGNVFSQTTICRFGALQLSFKNMCKLKPLLNKWLEETDSSS [E51G], the abundance fitness was -0.251 ± 0.16.
Take EDAPSSDDLEQFAKQFKQRRIKLGFTQADVGLALGTLYGNVFSQTTICRFYALQLSFKNMCKLKPLLNKWLEETDSSS [E51Y]: the abundance fitness was -0.899 ± 0.19.
The value for EDAPSSDDLEQFAKQFKQRRIKLGFTQADVGLALGTLYGNVFSQTTICRFAALQLSFKNMCKLKPLLNKWLEETDSSS [E51A] was -0.65 ± 0.13.
In the case of EDAPSSDDLEQFAKQFKQRRIKLGFTQADVGLALGTLYGNVFSQTTICRFLALQLSFKNMCKLKPLLNKWLEETDSSS [E51L] it was -1.08 ± 0.19; in that of EDAPSSDDLEQFAKQFKQRRIKLGFTQADVGLALGTLYGNVFSQTTICRFSALQLSFKNMCKLKPLLNKWLEETDSSS [E51S], -0.723 ± 0.12.
In the case of EDAPSSDDLEQFAKQFKQRRIKLGFTQADVGLALGTLYGNVFSQTTICRFFALQLSFKNMCKLKPLLNKWLEETDSSS [E51F] it was -0.756 ± 0.17; in that of EDAPSSDDLEQFAKQFKQRRIKLGFTQADVGLALGTLYGNVFSQTTICRFVALQLSFKNMCKLKPLLNKWLEETDSSS [E51V], -0.525 ± 0.13; in that of EDAPSSDDLEQFAKQFKQRRIKLGFTQADVGLALGTLYGNVFSQTTICRFNALQLSFKNMCKLKPLLNKWLEETDSSS [E51N], -0.461 ± 0.13.
Regarding EDAPSSDDLEQFAKQFKQRRIKLGFTQADVGLALGTLYGNVFSQTTICRFDALQLSFKNMCKLKPLLNKWLEETDSSS [E51D], the abundance fitness was -0.381 ± 0.17.
For EDAPSSDDLEQFAKQFKQRRIKLGFTQADVGLALGTLYGNVFSQTTICRFEARQLSFKNMCKLKPLLNKWLEETDSSS [L53R], the abundance fitness is -0.052 ± 0.045.
In the case of EDAPSSDDLEQFAKQFKQRRIKLGFTQADVGLALGTLYGNVFSQTTICRFEAEQLSFKNMCKLKPLLNKWLEETDSSS [L53E] it was -0.494 ± 0.12; in that of EDAPSSDDLEQFAKQFKQRRIKLGFTQADVGLALGTLYGNVFSQTTICRFEAIQLSFKNMCKLKPLLNKWLEETDSSS [L53I], 0.064 ± 0.11.
As for EDAPSSDDLEQFAKQFKQRRIKLGFTQADVGLALGTLYGNVFSQTTICRFEAAQLSFKNMCKLKPLLNKWLEETDSSS [L53A], the abundance fitness came to 0.042 ± 0.054.
EDAPSSDDLEQFAKQFKQRRIKLGFTQADVGLALGTLYGNVFSQTTICRFEAVQLSFKNMCKLKPLLNKWLEETDSSS [L53V]: the abundance fitness was -0.055 ± 0.05.
In the case of EDAPSSDDLEQFAKQFKQRRIKLGFTQADVGLALGTLYGNVFSQTTICRFEADQLSFKNMCKLKPLLNKWLEETDSSS [L53D] it was -0.646 ± 0.25; in that of EDAPSSDDLEQFAKQFKQRRIKLGFTQADVGLALGTLYGNVFSQTTICRFEAKQLSFKNMCKLKPLLNKWLEETDSSS [L53K], -0.135 ± 0.092; in that of EDAPSSDDLEQFAKQFKQRRIKLGFTQADVGLALGTLYGNVFSQTTICRFEAPQLSFKNMCKLKPLLNKWLEETDSSS [L53P], -0.759 ± 0.29.
In the case of EDAPSSDDLEQFAKQFKQRRIKLGFTQADVGLALGTLYGNVFSQTTICRFEATQLSFKNMCKLKPLLNKWLEETDSSS [L53T] it was -0.336 ± 0.11; in that of EDAPSSDDLEQFAKQFKQRRIKLGFTQADVGLALGTLYGNVFSQTTICRFEAHQLSFKNMCKLKPLLNKWLEETDSSS [L53H], -0.111 ± 0.14.
The value for EDAPSSDDLEQFAKQFKQRRIKLGFTQADVGLALGTLYGNVFSQTTICRFEASQLSFKNMCKLKPLLNKWLEETDSSS [L53S] was 0.051 ± 0.058; that for EDAPSSDDLEQFAKQFKQRRIKLGFTQADVGLALGTLYGNVFSQTTICRFEAWQLSFKNMCKLKPLLNKWLEETDSSS [L53W] was -0.478 ± 0.076.
For EDAPSSDDLEQFAKQFKQRRIKLGFTQADVGLALGTLYGNVFSQTTICRFEAQQLSFKNMCKLKPLLNKWLEETDSSS [L53Q], the abundance fitness is -0.009 ± 0.11.
In the case of EDAPSSDDLEQFAKQFKQRRIKLGFTQADVGLALGTLYGNVFSQTTICRFEAYQLSFKNMCKLKPLLNKWLEETDSSS [L53Y] it was -0.112 ± 0.2.
The value for EDAPSSDDLEQFAKQFKQRRIKLGFTQADVGLALGTLYGNVFSQTTICRFEAFQLSFKNMCKLKPLLNKWLEETDSSS [L53F] was -0.256 ± 0.14; that for EDAPSSDDLEQFAKQFKQRRIKLGFTQADVGLALGTLYGNVFSQTTICRFEANQLSFKNMCKLKPLLNKWLEETDSSS [L53N] was 0.319 ± 0.17; that for EDAPSSDDLEQFAKQFKQRRIKLGFTQADVGLALGTLYGNVFSQTTICRFEQLQLSFKNMCKLKPLLNKWLEETDSSS [A52Q] was 0.021 ± 0.085.
The value for EDAPSSDDLEQFAKQFKQRRIKLGFTQADVGLALGTLYGNVFSQTTICRFESLQLSFKNMCKLKPLLNKWLEETDSSS [A52S] was 0.036 ± 0.059.
